Test results published in patent publication US20140056903A1 (Regeneron, published 2014).

B1: H4H2352S (antibody, human IgG4, V domains shown)
VH: EVQLVQSGAEVKKPGASVKVSCKASGYTFTNYGITWVRQAPGQGLEWMGWISAYNGNTGYAQKFQGRVTMTTDTSTSTAYMELRSLRSDDTAVYYCAREDYDFWRAFDIWGQGTMVTVSS
VL: EIVLTQSPGTLSLSPGERATLSCRASQSVSSTYLAWLQQKPGQAPRLLIYGASSRATGIPDRFSGSGSGTDFTLTINRLEPEDFAVYYCQQYAYSPYTFGQGTKLEIK
notes: human IgG4 Fc (H4H); also called H4H2352S-1
B2: H4H2212N (antibody, human IgG4, V domains shown)
VH: EVQLLESGGGLVQPGGSLRLSCAASGFTFSSYAMSWVRQGPGKGLEWVSGISGSGGSTYNADSVKGRFTISRDNSKNTLYLQMNSLRAEDTAVYYCAKDSGTYWYYFDYWGQGILVTVSS
VL: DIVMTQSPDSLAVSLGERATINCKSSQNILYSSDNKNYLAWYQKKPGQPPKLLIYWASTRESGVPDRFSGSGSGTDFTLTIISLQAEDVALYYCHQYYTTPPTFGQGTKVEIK
notes: human IgG4 Fc (H4H)
B3: H4H2342P (antibody, human IgG4, V domains shown)
VH: EVQLLESGGGLVQPGGSLRLSCAASGFTFSTYAMSWVRQAPGKGLEWVSAIRGNGVNTYYGDSMKGRFTISRDNSKDTLYLQMNSLRAEDTAVYYCAKNKWELLVFEYWGQGTLVTVSS
VL: DIQMTQSPSSLSASVGDRVTITCRASQDISNYLAWYQQKPGKVPKLLIYAASTLQSGVPFRFSGSGSGTDFTLTISSLQPEDVATYYCQKYNSAPPFGPGTKVDIK
notes: human IgG4 Fc (H4H)
B4: H4H2243N2 (antibody, human IgG4, V domains shown)
VH: QVQLVQSGAEVKKPGASVKVSCKASGYTFTSYGIIWVRQAPGQGLEWMGWISGYNGNTNYAQNLQGRVTMTTDTSTTTAYMELRSLRSDDTAVYYCARWGIATRPYYYYGMDVWGQGTTVTVSS
VL: DIQMTQSPSSLSASVGDRVTITCRASQDITNYLAWFQQKPGKAPKSLIYAASSLQSGVPSKFSGSGSGTDFTLTISSLQPEDFATYYCQQYNSYPPTFGPGTKVDIK
notes: human IgG4 Fc (H4H)
B5: H4H2294S (antibody, human IgG4, V domains shown)
VH: EVQLVESGGGLVQPGGSLRLSCAASGFTFSSYAMSWVRQAPGKGLEWVSVISGSGGSTYYADAVKGRFTISRDNSKHTLYLQMNSLRAEDTAVYYCTKPSSYSSSNFYYGMDVWGQGSTVTVSS
VL: DIQLTQSPSSVSASVGDRVTITCRASQGISSWLAWYQQKPGKAPKLLIYAASSLQSGVPSRFSGSGSGTDFTLTISSLQPEDFATYYCQQTNSFPFPFGPGTKVDIK
notes: human IgG4 Fc (H4H)
B6: H4H2292S (antibody, human IgG4, V domains shown)
VH: EVQLVESGGGVVQPGRSLRLSCAASGFTFSSYGMHWVRQAPGKGLEWVSFIWYDGSNKYYADSVKGRFTISRDNSKNTLYLQMNSLTAEDTAVYYCARRGILTGTTAFDIWGQGTMVTVSS
VL: DIQMTQSPSSLSASVGDRVTITCRASQSISSYLNWYQQKPGKAPKLLIYAASSLQSGVPSRFSGSGSGTDFTLTIRSLIPEDFATYYCQQTYNTPFTFGPGTKVEIK
notes: human IgG4 Fc (H4H)

biological target: T1, human GFRα2 expressed with a C-terminal human Fc tag and a hexahistidine tag (human, UniProt O00451 22-441, limits assumed); assay: BLI Octet, antigen on anti-hFc tips, 100 ug/mL Ab
T1 construct: bought protein; also called hGFRα2-hFc-6His; hGFRα2-hFc-6his
T1 sequence (looked up): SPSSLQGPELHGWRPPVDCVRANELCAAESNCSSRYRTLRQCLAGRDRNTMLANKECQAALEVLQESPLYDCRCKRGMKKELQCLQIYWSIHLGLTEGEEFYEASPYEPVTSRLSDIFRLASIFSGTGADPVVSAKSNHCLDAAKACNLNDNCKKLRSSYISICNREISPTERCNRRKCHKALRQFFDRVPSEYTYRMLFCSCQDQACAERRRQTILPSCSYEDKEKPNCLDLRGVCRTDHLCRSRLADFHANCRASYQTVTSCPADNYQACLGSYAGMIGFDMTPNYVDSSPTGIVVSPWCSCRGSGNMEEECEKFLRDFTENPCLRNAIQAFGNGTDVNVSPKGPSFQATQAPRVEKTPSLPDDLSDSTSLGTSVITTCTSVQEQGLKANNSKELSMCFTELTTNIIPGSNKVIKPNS
Description: (§1) The ability of anti-GFRα3 antibodies to bind to GDNF-family receptors was assessed using an Octet Red biosensor (Fortebio, Inc.). Antibodies were tested for binding to either human GFRα1 expressed with a C-terminal human Fc tag and a hexahistidine tag (hGFRα1-hFc-6His, R&D Systems #714-GR), human GFRα1 expressed with only a C-terminal human Fc tag (hGFRα1-hFc; SEQ ID: 376), human GFRα2 expressed with a C-terminal human Fc tag and a hexahistidine tag (hGFRα2-hFc-6His, R&D Systems #613-FR), human GFRα3 expressed with a C-terminal human Fc tag (hGFRα3-hFc, SEQ ID:371), or an irrelevant human Fc tagged protein. Antigens were captured onto anti-human Fc sensor tips from 10 ug/mL solutions for 5 minutes. The coated sensor tips were then blocked with a 100 ug/mL solution of irrelevant human Fc antibodies for 5 minutes. Blocked sensor tips were then submerged into wells containing […] of each anti-GFRα3 antibody or buffer alone for 10 minutes. The experiment was performed at 25° C. with a flow rate of 1000 rpm using HBST+BSA buffer (10 mM HEPES, 150 mM NaCl, 3 mM EDTA, 0.05% w/v Surfactant P20, 0.1 mg/mL BSA, pH 7.4). The binding response (measured in units of nm) at each step of the experiment was monitored and recorded.

Binder | Bound (nm)
B1 | 0.04 nm
B2 | 0.02 nm
B3 | 0.12 nm
B4 | 0.06 nm
B5 | 0.06 nm
B6 | 0.05 nm

biological target: T2, human GFRα1 expressed with a C-terminal human Fc tag and a hexahistidine tag (human, UniProt P56159 25-429, limits assumed); assay: BLI Octet, antigen on anti-hFc tips, 100 ug/mL Ab
T2 construct: bought protein; also called hGFRα1-hFc-6His; hGFRα1-hFc-6his
T2 sequence (looked up): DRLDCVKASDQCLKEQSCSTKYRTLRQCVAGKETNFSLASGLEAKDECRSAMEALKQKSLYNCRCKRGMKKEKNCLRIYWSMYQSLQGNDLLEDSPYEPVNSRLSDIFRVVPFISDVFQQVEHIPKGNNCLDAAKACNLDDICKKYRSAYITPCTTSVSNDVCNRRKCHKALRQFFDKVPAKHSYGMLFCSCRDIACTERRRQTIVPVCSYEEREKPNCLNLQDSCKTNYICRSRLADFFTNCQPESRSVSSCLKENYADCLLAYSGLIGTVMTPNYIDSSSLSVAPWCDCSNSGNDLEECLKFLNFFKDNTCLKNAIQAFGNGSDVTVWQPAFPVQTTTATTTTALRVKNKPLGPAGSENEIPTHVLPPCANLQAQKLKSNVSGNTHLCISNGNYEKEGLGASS
Description: as §1

Binder | Bound (nm)
B1 | 0.03 nm
B2 | -0.01 nm
B3 | 0.08 nm
B4 | 0.03 nm
B5 | 0.03 nm
B6 | 0.03 nm

biological target: T3, irrelevant human Fc tagged protein; assay: BLI Octet, antigen on anti-hFc tips, 100 ug/mL Ab
T3 construct: negative control antigen; also called Irrelevant hFc tagged protein
Description: as §1

Binder | Bound (nm)
B1 | 0.03 nm
B2 | 0 nm
B3 | 0.07 nm
B4 | 0.03 nm
B5 | 0.03 nm
B6 | 0.02 nm

biological target: T4, human GFRα1 expressed with only a C-terminal human Fc tag (human); assay: BLI Octet, antigen on anti-hFc tips, 100 ug/mL Ab
T4 construct: also called hGFRα1-hFc
Description: as §1

Binder | Bound (nm)
B1 | 0.02 nm
B2 | 0 nm
B3 | 0.06 nm
B4 | 0.03 nm
B5 | 0.04 nm
B6 | 0.05 nm

biological target: T5, human GFRα3 expressed with a C-terminal hFc tag (human); assay: BLI Octet, antigen on anti-hFc tips, 100 ug/mL Ab
T5 construct: also called hGFRα3-hFc
T5 sequence (chain, as listed by the source limits assumed): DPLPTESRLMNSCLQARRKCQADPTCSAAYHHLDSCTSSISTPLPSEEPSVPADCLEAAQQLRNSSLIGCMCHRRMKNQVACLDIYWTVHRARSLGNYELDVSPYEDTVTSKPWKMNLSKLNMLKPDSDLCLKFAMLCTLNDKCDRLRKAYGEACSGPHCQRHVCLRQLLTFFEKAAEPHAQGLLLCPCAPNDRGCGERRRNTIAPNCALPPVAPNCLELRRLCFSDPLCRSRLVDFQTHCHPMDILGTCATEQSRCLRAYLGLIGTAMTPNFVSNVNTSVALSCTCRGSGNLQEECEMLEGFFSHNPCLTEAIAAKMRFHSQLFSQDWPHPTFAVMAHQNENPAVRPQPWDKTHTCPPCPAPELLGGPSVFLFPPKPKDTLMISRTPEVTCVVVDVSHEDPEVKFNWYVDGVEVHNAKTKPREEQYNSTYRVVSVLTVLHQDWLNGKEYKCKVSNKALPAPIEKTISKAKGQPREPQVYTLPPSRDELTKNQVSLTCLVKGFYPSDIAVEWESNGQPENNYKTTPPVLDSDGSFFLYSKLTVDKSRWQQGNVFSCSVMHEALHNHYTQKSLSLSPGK
Description: as §1

Binder | Bound (nm)
B1 | 1.25 nm
B2 | 1.18 nm
B3 | 1.59 nm
B4 | 1.11 nm
B5 | 1.17 nm
B6 | 1.04 nm

biological target: T1, human GFRα2 expressed with a C-terminal …; assay: BLI Octet, antigen captured on anti-hFc tips
Description: as §1

Binder | binding result
B1 | no binding (tested: 100 ug/mL)
B2 | no binding (tested: 100 ug/mL)
B3 | no binding (tested: 100 ug/mL)
B4 | no binding (tested: 100 ug/mL)
B5 | no binding (tested: 100 ug/mL)
B6 | no binding (tested: 100 ug/mL)

biological target: T2, human GFRα1 expressed with a C-terminal …; assay: BLI Octet, antigen captured on anti-hFc tips
Description: as §1

Binder | binding result
B1 | no binding (tested: 100 ug/mL)
B3 | no binding (tested: 100 ug/mL)
B4 | no binding (tested: 100 ug/mL)
B5 | no binding (tested: 100 ug/mL)
B6 | no binding (tested: 100 ug/mL)

biological target: T4, human GFRα1 expressed with only a …; assay: BLI Octet, antigen captured on anti-hFc tips
Description: as §1

Binder | binding result
B1 | no binding (tested: 100 ug/mL)
B2 | no binding (tested: 100 ug/mL)
B3 | no binding (tested: 100 ug/mL)
B4 | no binding (tested: 100 ug/mL)
B5 | no binding (tested: 100 ug/mL)
B6 | no binding (tested: 100 ug/mL)
